Experimental findings from patent US20200399394A1 (published 2020) are described below.

For assay [1], the target named is T1, human CD39 (ectonucleoside triphosphate diphosphohydrolase 1) (UniProt P49961 1-510).
T1 chain: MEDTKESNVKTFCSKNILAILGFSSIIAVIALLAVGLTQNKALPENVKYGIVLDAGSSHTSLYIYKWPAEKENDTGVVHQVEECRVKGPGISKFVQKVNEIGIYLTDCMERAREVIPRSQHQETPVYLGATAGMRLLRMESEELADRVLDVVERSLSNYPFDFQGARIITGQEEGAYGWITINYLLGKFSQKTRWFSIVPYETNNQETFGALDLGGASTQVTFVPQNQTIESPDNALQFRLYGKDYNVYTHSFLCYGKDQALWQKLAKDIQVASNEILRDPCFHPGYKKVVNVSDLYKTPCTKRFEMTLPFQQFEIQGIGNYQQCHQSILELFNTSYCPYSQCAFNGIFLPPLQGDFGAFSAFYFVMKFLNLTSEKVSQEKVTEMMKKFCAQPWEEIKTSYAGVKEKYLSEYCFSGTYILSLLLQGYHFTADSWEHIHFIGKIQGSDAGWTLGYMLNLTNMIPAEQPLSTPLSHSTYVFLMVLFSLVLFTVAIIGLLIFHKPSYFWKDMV
The experiment in a line: MSD equilibrium; Fab.

In assay [2] the target is T1, human CD39 (ectonucleoside triphosphate …). The assay is described as follows: ForteBio (BLI); IgG, monovalent.

Residue numbers refer to the chain shown, from its start.

B1: SRF360-C (antibody, V domains shown)
VH: EVQLVESGGGLVKPGGSLRLSCAASGFTFSSYRMNWVRQAPGKGLEWVSSISSSSSSIWYADSVKGRFTISRDNAKNSLYLQMNSLRAEDTAVYYCAKGPRYDSSGYRWRYGMDVWGQGTTVTVSS
VL: DIQMTQSPSSLSASVGDRVTITCRASQSISSYLNWYQQKPGKAPKLLIYAASSLQSGVPSRFSGSGSGTDFTLTISSLQPEDFATYYCQQLYVDPPWTFGGGTKVEIKR
What is called Kd is the constant that tells how readily two partners part at equilibrium. A high value points to a looser complex. In assay [1], B1 had a Kd of 0.044 nM.

B2: SRF360-C (antibody, V domains shown)
VH: B1 VH
VL: B1 VL
In assay [2], B2 showed a Kd of 0.772 nM.

B3: SRF365-C (antibody, V domains shown)
VH: QVQLVQSGAEVKKPGSSVKVSCKASGGTFSDKAISWVRQAPGQGLEWMGSILPIFGTANYAQKFQGRVTITADESTSTAYMELSSLRSEDTAVYYCAREAGYYRYRYFDLWGRGTLVTVSS
VL: EIVMTQSPATLSVSPGERATLSCRASQSVSSNLAWYQQKPGQAPRLLIYGASTRATGIPARFSGSGSGTEFTLTISSLQSEDFAVYYCQQHALWPLTFGGGTKVEIKR
Consider B3, for which, in assay [1], the dissociation constant (Kd) turned out to be 0.051 nM.

B4: SRF365-C (antibody, V domains shown)
VH: B3 VH
VL: B3 VL
For the molecule B4, in assay [2], the Kd is 0.556 nM.

B5: SRF367-C (antibody, V domains shown)
VH: B3 VH with D31S, K32E, A33G, R113K
VL: B3 VL
With B5, binding in assay [1] was characterised by a dissociation constant (Kd) of 0.24 nM.

B6: SRF367-C (antibody, V domains shown)
VH: B3 VH with D31S, K32E, A33G, R113K
VL: B3 VL
In the case of B6, the Kd in assay [2] turned out to be 1.57 nM.

B7: SRF370-C (antibody, V domains shown)
VH: QVQLVQSGAEVKKPGSSVKVSCKASGGTFSTYAIGWVRQAPGQGLEWMGGIIPAFGTANYAQKFQGRVTITADESTSTAYMELSSLRSEDTAVYYCARDPVRRSPFDIWGQGTMVTVSS
VL: EIVLTQSPATLSLSPGERATLSCRASQSVSSYLAWYQQKPGQAPRLLIYDSSNRATGIPARFSGSGSGTDFTLTISSLEPEDFAVYYCQQSFLWPRTFGGGTKVEIKR
In assay [2], B7 gave a Kd of 2.59 nM.
